# Experiments:
# [1] = GSH triggered NAC release from PAMAM dendrimer-NAC conjugates (RP-HPLC); format: physicochemical; settings: for amount released: over 20 hours
# Method: (§1) Appropriate amounts of PAMAM-S—S-NAC conjugate were dissolved in release media (Citrate or PBS buffers) to form a solution of 1 mg/ml PAMAM-S—S-NAC. One of the thiol containing molecules (GSH, Cys or BSA) was added to the conjugates to form 10 mM, 2 mM, 0.5 mM 0.1 mM or 2 μM overall thiol group concentrations and to initiate the release of NAC. All samples were run as triplicates for statistical analysis.
# As control samples, conjugates were analyzed in both release media in the absence of reducing agents. The solutions were kept at 37° C. and stirred continuously. At predetermined time intervals, […] of samples were withdrawn and immediately analyzed with RP-HPLC and the concentrations of analytes were determined by using appropriate calibrations prepared under same conditions.
# Dendrimer NAC conjugates were analyzed for their drug release mechanism and kinetics in the presence of GSH, Cys and BSA. Buffer solutions with pH 5 (Citrate Buffer) and pH 7.4 (Phosphate Buffered Saline) containing various concentrations of these thiol containing moieties were used in release studies.
# All GSH concentrations studied were between average plasma (2 μM) and intracellular (2-10 mM) GSH levels. Various GSH concentrations were used in order to determine the GSH dependent release kinetics of the conjugate. The conjugate solutions contained 730 μM NAC in the conjugated form (1 mg/ml PAMAM-S—S-NAC) at the beginning of the release studies. GSH concentration in the release media was compared to the conjugated NAC concentrations in the release solutions for analysis of the release kinetics and mechanism.
# The release of NAC from the conjugates was investigated in the presence of GSH at intracellular and extracellular concentrations. It was assumed that the release of NAC would occur by the disulfide exchange reaction. GSH and its oxidized form (GSSG) are responsible for forming the intracellular redox buffer. Intracellularly, GSH takes the role of attacking thiolate moiety and gets oxidized in the process while cleaving the existing disulfide bonds.
# The conjugates were also analyzed in the absence of GSH to verify the stability of the disulfide linkage at physiological pH. […] The extent of the release of drug from both dendrimer-NAC conjugates was also analyzed at plasma and intracellular GSH concentrations. The conjugates and the GSH in required amounts were added to PBS solution, and the solution was analyzed at various time intervals by HPLC for up to 17 hours. UV absorbance peak areas were used to determine the concentrations of each of the species in the solution, based on appropriate calibration curves.
# [2] = test system: BV-2 cells; experiment: ROS assay, percent reduction in H2O2 in LPS-treated BV-2 cells (Example 19); format: cell-based, mouse; settings: for reduction in H2O2 levels: 0.5 mM NAC (equivalent), co-treatment with LPS
# Method: Cells were treated with lipopolysaccharide (LPS) to induce the production of ROS. The cells were treated with LPS (100 ng/ml) and either NAC, PAMAM-S—S-NAC, or free PAMAM-NH2 dendrimers at appropriate concentrations to study the efficacy of the conjugates for reducing the ROS concentrations. In order to quantify the efficacy of conjugates, H2O2 released from BV-2 cells (ROS) was measured using the Amplex Red Hydrogen Peroxide/Peroxidase Assay Kit using previously established procedures.
# [3] = test system: Mouse microglial cell line (BV-2); experiment: In vitro cytotoxicity, MTT assay (Example 19)
# Excerpt: In vitro cytotoxicity of the conjugate, dendrimer and NAC, at conditions similar to that used in the efficacy assays, was investigated by MTT assay. Mouse microglial cell line (BV-2) was obtained from Children's Hospital of Michigan Cell Culture Facility. These cells were used because the eventual in vivo applications seek to target microglial cells that become activated as a result of neuroinflammation.
# The lipopolysaccharide (LPS) was used to activate the cells for the ROS assay. For the cytotoxicity study, the LPS treatment was continuous for 24 hours. For both groups, the LPS concentration used was 100 ng/ml. Three concentrations of NAC were studied: 0.5 mM, 2 mM and 8 mM. For the conjugate assays, the concentrations used corresponded to equivalent NAC doses of the free drug treatment groups. Similarly, the dendrimer assays were run by using dendrimer concentrations that were equivalent to conjugate treatments. Control groups included cells receiving only LPS and no other treatment and cells with no LPS or other treatment. The proportion of viable cells in the treated group was compared to that of negative control. The cell viability is expressed as mean±SD of three samples per group, and assessed by t-test.
# [4] = Solubility in PBS/H2O; format: physicochemical
# [5] = Cysteine triggered NAC release from PAMAM-S-S-NAC; format: physicochemical; settings: pH 7.4
# Method: as §1
# [6] = Stability of conjugate in bovine serum albumin (BSA) solution; format: physicochemical; settings: pH 7.4 and pH 5, over 24 hours
# Excerpt: To investigate the reducing activity of Cys in protein structures, bovine serum albumin (BSA) was chosen for release studies since it is the most abundant protein in plasma. Additionally, for intravenous administration of conjugates, it is important for the drug to stay intact with the carrier until the conjugate reaches its final destination within the body. Thus the release characteristic in the presence of albumin is crucial for intravenous applications. The release studies in the presence of BSA were carried out at pH 7.4 and pH 5 as well. The BSA concentrations used for the studies were adjusted so that the overall Cys concentrations in BSA release media were the same as the GSH and Cys release studies, discussed earlier. In addition to the five thiol concentrations studied, the stability of the conjugate at plasma BSA concentration was also analyzed.
# [7] = 10 mM GSH, PBS pH 7.4, within 1 hour
# [8] = 10 mM GSH, after the initial 1 hour release (time not given)
substance,measurement,setting,value
PAMAM-NH—CO-Ethyl-S—S-NAC [PAMAM-S—S-NAC],NAC payload in GS-S-NAC (NAC-GSH) form,[1]; [7],19%
same,NAC payload released in free form,[1]; [7],47%
same,total NAC release,[1]; [7],66%
same,NAC payload as GS-S-NAC,[1]; [8],14%
same,NAC payload in free form,[1]; [8],41%
same,NAC release,"[1]; PBS buffer without GSH, 17 hours",did not release any of the NAC they carried
same,duration of sustained drug release,[1]; lysosomal pH,about 8 hours
same,NAC release,"[1]; pH 5, 2 μM GSH, within 20 hours",no significant amount NAC was released
same,amount released,"[1]; pH 5, 100 μM GSH",15%
same,amount released,"[1]; pH 5, 500 μM GSH",58%
same,time to nearly completed release,"[1]; pH 5, 2000 μM GSH",up to 20 hours
same,time to nearly completed release,"[1]; pH 5, 10,000 μM GSH",≤ 7 h
same,maximum extent of payload release,"[1]; pH 5.0, intracellular GSH concentrations",about 90%
same,NAC payload released,"[1]; pH 5, intracellular GSH concentrations (excess), within 20 hours",95%
same,NAC release,"[1]; pH 5, no GSH",did not release any NAC
same,NAC release,"[1]; pH 7.4, 2 μM GSH",no detectable level of NAC released
same,NAC release,"[1]; pH 7.4, 100 μM GSH",6%
same,NAC release,"[1]; pH 7.4, 500 μM GSH",31%
same,payload released,"[1]; pH 7.4, 2000 μM GSH",60%
same,payload released,"[1]; pH 7.4, 10,000 μM GSH",66%
same,NAC release,"[1]; pH 7.4, absence of GSH, within 3 days",did not release any NAC
same,maximum extent of payload release,"[1]; pH 7.4, intracellular GSH concentrations",approximately 65%
same,drug released,"[1]; pH 7.4, intracellular GSH levels, in less than two hours",More than 60%
same,NAC payload found as GS-S-NAC or NAC-NAC,[1]; plasma GSH concentration (2 μM),1%
same,release of free NAC,"[1]; plasma GSH concentration (2 μM), 17 hours",did not release any detectable levels of free NAC
same,reduction in H2O2 levels,[2]; 24 hours,72%
same,reduction in H2O2 levels,[2]; 72 hours,101%
same,reduction in effective dose,"[2]; 3 hours of treatment, lower drug doses (0.5 mM and 2 mM)",≤ 4 fold
same,reduction of effective dose of NAC,"[2]; continuous treatment, 0.5 mM conjugate vs 8 mM free NAC",about 16 times
same,cell survival rate,[3]; highest dose,84%
same,cell survival rate,[3]; lowest concentration of the conjugate,greater than 95%
same,Solubility in PBS/H2O,[4],Highly
same,rate of NAC release with Cys compared to GSH,[5],slightly faster rates
same,NAC release in presence of BSA,[6],no NAC being released
